Measured values taken from US7271245B2, “Methods and compositions for inhibition of metastasis” (The Scripps Research Institute, priority 2004, dated 2007).
Changes are numbered by the printed parent chain.

B1: Bc-12: patient derived human scFv antibody against activated αvβ3 with RGD motif in CDR-H3; cDNA ATCC PTA-6303 (protein)
scFv: MAQVQLVQSGAEVKKPGASVKVSCKASGYTFSNYGITWVRQAPGQGLEWMGWINNGNTHYAQKFQGRVTMTTDTSTSTAYMELRSLRSDDTAVYYCARDPRGDDEPYWGQGTLVTVSSGGGGSGGGGSGGGGSEIVLTQSPLSLPVTLGQPASISCRSSQNLVYSDGNTYLSWFQQRPGQSPRRLIYKVSNRDSGVPDRFSGSGSGTDFTLKISRVEAEDIGVYYCMQGTHWPPRTFGQGTKVEIKRGLGGLVDYKDDDDK
B2: Mut-12: RGE containing mutant version of scFv Bc-12 (protein)
chain: B1 scFv with D103E

Target: T1, activated integrin αvβ3 (Homo sapiens, UniProt P05106+P06756)
T1 construct: endogenous in cells; host or cells: MDA-MB 435 variants (Parent Combo, Bone, Lung) and patient blood-derived BMS cells; also β3-negative cells re-transfected with β3WT or β3D723R cDNA
T1 sequence (P06756 31-889 limits assumed): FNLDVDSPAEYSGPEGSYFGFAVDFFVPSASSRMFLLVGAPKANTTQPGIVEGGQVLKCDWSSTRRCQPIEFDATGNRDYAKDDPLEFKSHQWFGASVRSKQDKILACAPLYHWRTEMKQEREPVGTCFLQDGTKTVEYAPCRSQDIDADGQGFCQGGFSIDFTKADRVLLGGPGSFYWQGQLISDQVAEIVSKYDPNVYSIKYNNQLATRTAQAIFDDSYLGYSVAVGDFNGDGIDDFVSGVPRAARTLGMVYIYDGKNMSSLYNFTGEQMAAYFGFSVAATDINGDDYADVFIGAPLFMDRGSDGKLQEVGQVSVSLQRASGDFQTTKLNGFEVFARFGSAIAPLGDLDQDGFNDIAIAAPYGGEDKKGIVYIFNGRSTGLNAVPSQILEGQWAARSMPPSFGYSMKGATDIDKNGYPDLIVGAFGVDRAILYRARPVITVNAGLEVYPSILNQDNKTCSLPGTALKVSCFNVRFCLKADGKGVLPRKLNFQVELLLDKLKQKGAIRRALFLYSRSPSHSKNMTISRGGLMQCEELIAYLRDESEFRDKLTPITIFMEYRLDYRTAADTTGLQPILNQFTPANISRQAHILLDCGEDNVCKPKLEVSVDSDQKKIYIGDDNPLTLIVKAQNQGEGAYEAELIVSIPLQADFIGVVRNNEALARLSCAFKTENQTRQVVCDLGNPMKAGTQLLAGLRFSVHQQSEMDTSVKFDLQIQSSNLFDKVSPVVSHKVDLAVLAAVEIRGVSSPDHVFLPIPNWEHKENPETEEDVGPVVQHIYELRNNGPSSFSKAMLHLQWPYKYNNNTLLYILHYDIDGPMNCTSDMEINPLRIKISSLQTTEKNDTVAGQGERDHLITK
T1 sequence (P06756 891-1048 limits assumed): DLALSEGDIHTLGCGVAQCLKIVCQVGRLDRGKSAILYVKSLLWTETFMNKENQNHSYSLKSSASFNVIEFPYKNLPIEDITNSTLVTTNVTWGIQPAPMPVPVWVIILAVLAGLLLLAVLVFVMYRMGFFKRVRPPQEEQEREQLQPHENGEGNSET
T1 sequence (P05106 27-788): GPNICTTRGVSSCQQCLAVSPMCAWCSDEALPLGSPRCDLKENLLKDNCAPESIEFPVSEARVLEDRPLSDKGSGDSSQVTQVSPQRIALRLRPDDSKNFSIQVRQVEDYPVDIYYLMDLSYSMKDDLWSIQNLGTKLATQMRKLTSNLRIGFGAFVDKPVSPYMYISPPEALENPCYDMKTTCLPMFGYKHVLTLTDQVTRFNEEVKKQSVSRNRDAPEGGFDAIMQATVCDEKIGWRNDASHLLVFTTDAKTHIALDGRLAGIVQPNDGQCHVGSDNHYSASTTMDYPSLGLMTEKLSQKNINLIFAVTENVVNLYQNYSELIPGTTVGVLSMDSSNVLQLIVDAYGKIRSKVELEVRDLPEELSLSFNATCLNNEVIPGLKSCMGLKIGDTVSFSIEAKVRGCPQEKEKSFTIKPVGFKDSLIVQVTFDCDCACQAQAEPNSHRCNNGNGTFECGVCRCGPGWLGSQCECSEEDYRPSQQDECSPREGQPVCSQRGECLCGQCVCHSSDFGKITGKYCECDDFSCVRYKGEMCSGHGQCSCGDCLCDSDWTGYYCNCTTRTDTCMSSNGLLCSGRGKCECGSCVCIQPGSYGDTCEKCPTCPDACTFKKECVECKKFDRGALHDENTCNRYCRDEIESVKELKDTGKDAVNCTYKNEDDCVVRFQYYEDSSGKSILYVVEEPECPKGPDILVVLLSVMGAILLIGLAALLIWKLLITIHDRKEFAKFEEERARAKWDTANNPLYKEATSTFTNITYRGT
Test: Flow cytometry, scFv binding to MDA-MB 435 variants and patient metastatic breast cancer cells
Protocol: FIGS. 1A, 1B, 1C. Patient derived scFvs Bc-12 and Bc-15 recognize tumor cell integrin αvβ3 in a cation and activation dependent manner. Flow cytometric analyses in TBS with or without 1 mM Ca^2+, 1 mM Mg^2+, or 0.2 mM Mn^2+ as indicated. Binding of soluble scFv detected after incubation with anti-Flag M2 murine mAb followed by FITC-anti mouse F(ab′)2. (A) scFv binding to human melanoma cells (M21: αvβ3 plus other αv integrins) (M21-LIIb: αIIbβ3, no αv integrins) or lung adenocarcinoma cells (UCLA-P3: αv integrins, no β3 integrin). (B) scFv binding to M21 melanoma cells. (C) scFv binding to variants of MDA-MB 435 human breast cancer cells that lack (β^3−) or express αvβ3 either in a non-activated (β3WT, ParentCo) or activated form (β3D723R, Bone, Lung, and BMS metastatic cancer cells isolated from breast cancer patient blood).
FIGS. 2A, 2B, 2C, 2D. Translation of scFv DNA sequence analyses. (A) Consensus amino acid sequence (SEQ ID NO: 9) of Bc-12 (SEQ ID NO: 7) and Bc-15 (SEQ ID NO: 8) (specific for activated αvβ3) compared to Bc-20 (specific for αv) (SEQ ID NO: 10). (B) scFv binding to BMS human breast cancer cells by flow cytometry, indicating loss of Bc-12 and Bc-15 binding when CDR-H3 RGD is mutated to RGE (Mut-12 and Mut-15). […] (C) cDNA sequences for scFv Bc-12 (SEQ ID NO: 1) and scFv Bc-15 (SEQ ID NO: 3). The cDNA encoding scFv Bc-12 has an ATCC accession number PTA-6303, date of deposit: Nov. 12, 2004. The cDNA encoding scFv Bc-15 has an ATCC accession number PTA-6304, date of deposit: Nov. 12, 2004. (D) cDNA sequences for scFv Mut-12 (SEQ ID NO: 5) and scFv Mut-15 (SEQ ID NO: 6). scFv Mut-12 is the RGE containing mutant version of scFv Bc-12. scFv Mut-15 is the RGE containing mutant version of scFv Bc-15.
Flow cytometry. scFv binding to human tumor cells was analyzed by flow cytometry, initially with cloned scFv phage and then with purified scFv protein. Per sample, 2×10^5 tumor cells were blocked with goat serum and incubated either with scFv phage (2-5×10^10) (1 h at RT) followed by mouse anti-M13 mAb (Serotec) (30 min on ice) and goat FITC-anti mouse (Pierce) (30 min on ice), or with purified scFv (1.25 to 40 μg/ml, routinely 10 to 15 μg/ml) (45 min on ice), followed by mouse anti-FLAG mAb M2 (Sigma) (30 min on ice) and goat FITC-anti mouse. Binding/washing buffer was TBS with or without divalent cations (1 mM Ca^2+, 1 mM Mg^2+, 0.2 mM Mn^2+). Alternatively, tumor cells were washed in 10 ml of plasma (prepared freshly from human blood anticoagulated with 50 nM D-Phe-D-Pro-D-arginyl chloromethyl ketone, PPACK, Felding-Habermann et al., J. Biol. Chem. 271: 5892-5900, 1996), resuspended in plasma and then incubated sequentially, without washing, with purified scFv (45 min on ice), followed by anti-FLAG M2 (30 min on ice) and FITC-anti mouse (30 min on ice). All samples were counter stained with propidium iodide (PI) and analyzed on a Becton-Dickinson FACScan, with live gate set to exclude PI positive cells.
To test this further, the effects of cation combinations on Bc-12 and Bc-15 binding were examined. […] Smith, Methods Cell Biol. 69: 247-259, 2002; Hughes et al., J. Biol. Chem. 271: 6571-6574, 1996. To confirm that scFv Bc-12 and Bc-15 selectively recognize αvβ3 in its activated form, binding of these antibodies to in vitro generated and in vivo selected variants of the MDA-MB 435 breast cancer cell model was tested. […] In contrast, Bc-12 and Bc-15 were able to bind an MDA-MB 435 variant expressing constitutively activated mutant αvβ3D723R, without exogenous stimulation with Mn^2+. […] Importantly, scFvs Bc-12 and Bc-15 recognized in vivo selected MDA-MB 435 variants from bone and lung metastases, as well as metastatic cells isolated from breast cancer patient blood samples (FIG. 1C). These cells express αvβ3 in a constitutively activated form. Felding-Habermann et al., Proc. Natl. Acad. Sci. U.S.A 98: 1853-1858, 2001; Rolli et al., Proc. Natl. Acad. Sci. U.S.A 100: 9482-9487, 2003.

Molecule | recognition of in vivo selected MDA-MB 435 variants from bone and lung metastases (constitutively activated αvβ3) | recognition of metastatic cells isolated from breast cancer patient blood samples (constitutively activated αvβ3) | binding to MDA-MB 435 Parent Combo cells (non-activated αvβ3) | binding to β3 wild type expressing MDA-MB 435 cells (β3WT, non-activated αvβ3, without Mn^2+) | binding to β3 wild type expressing MDA-MB 435 cells with Mn2+ (β3WT, with Mn^2+) | binding of RGE mutated scFv to human breast cancer cells (BMS cells, compared with parent RGD scFv)
B1 | recognized | recognized | same Mn^2+ dependence | failed to bind | recognized when activated with Mn^2+ | –
B2 | – | – | – | – | – | strongly reduced
